What was measured:
[1] = molecular target: T1, Peptide-1 […] (SEQ ID NO: 6, 4N variant of ECD3 of US28) (Human cytomegalovirus, UniProt P69332, D170N); assay type: binding, human cytomegalovirus (HCMV); conditions: both ECD3 variants compared
T1 construct: made in house; host or cells: chemical synthesis
From the text: The binding specificity of a binding molecule of the first aspect of the present invention having anti-ECD3 binding specificity in addition to the anti-SEQ ID NO: 177 specificity (and/or a second binding molecule having anti-ECD3 binding specificity with which a binding molecule of the first aspect of the present invention may be combined in a formulation) to an epitope within ECD3 of a US28 protein may, for example, be assessed in an ELISA, such as a methodology as described in the examples of this application, or by a variant of said methodology, such as by coating peptides derived from ECD3 (such as Bio-Peptide 1 and/or Bio-Peptide-2) on a first set of wells in a microtiter plate and coating a negative control (such as BSA) in a second set of wells in a microtiter plate. The first set of wells may optionally be further subdivided into a first subgroup of the first set of wells that comprises the sequence of a 4N-variant from ECD3 of US28, and a second subgroup of the first set of wells that comprises the sequence of a 4D-variant from ECD3 of US28, to permit the determination of the relative binding specificity to each variant. […]

[2] = system: human cancer tissues and adjacent normal tissues; assay: Immunohistochemistry (IHC) on human cancer tissue micro-arrays
Protocol: Cytomegalovirus (CMV) control slides containing CMV positive lung tissue and CMV negative myometrium (product number #3240A) were obtained from Newcomer Supply Inc., Middleton, WI 53562-2579, USA. Tissue micro-arrays (TMAs) were obtained from US Biomax Inc., Derwood, MD 20855, USA, and included tumor tissues #BR1008b, #BS17016c, #BCN721b and normal tissues #FDA662a and heart tissues #HEN241a.
The paraffin sections were sequentially immersed into a. 100% xylene three times (5 min each); b. 100% ethanol twice (2 min each); c. 95% ethanol twice (2 min each). The slides were rinsed twice in water for 5 min to remove ethanol. […], the slides were immersed in 3% H2O2 for 5 minutes and washed thereafter twice (2×) with distilled water. The slides were then immersed in the working citrate buffer (pH 6.0) and covered with a lid. The buffer was heated in the microwave until it had boiled, and then kept in the steamer for 15 min.
The sections were cooled at room temperature for 30 min and washed with PBS. 5% BSA blocking solution was then added to the HIER treated samples and they were incubated at 37° C. for 30 min. The primary antibody was diluted according to the best results from the dilution gradient tests and added to the samples for incubation overnight at 4° C. or 37° C. for 1 h. The slides were then washed three times in PBS on the shaker. The secondary antibodies were used in 1:200 dilution, added to the samples and incubated at 37° C. for 30 min. The slides were washed three times (5 min each) in PBS on the shaker. Strept-Avidin Biotin Complex (SABC) HRP- or AP-conjugated reagents were added, and the samples were incubated in dark at room temperature. The samples were thereafter washed in distilled water, counter stained by hematoxylin, and then dehydrated through gradient ethanol from 70% to 100%, and cleared by 3 times in xylene, 5 min each. Slides were mounted by ACRYMOUNT (StatLab, MicKinney, TX 75069, USA) and cover-slipped. Digitized pictures were taken by Olympus VS120 scanner and analyzed by using OlyVia 3.2 software (Olympus Corporation, 20101 Tokyo, Japan) by senior Pathologist.
We thereafter studied the binding of US28-13-5G6-1D3 rAb to human cancer tissues by using IHC and confirmatory ISH analyses. The results were evaluated by a Senior Pathologist. We found specific staining of the US28-13-5G6-1D3 rAb on several cancer types. Among these were glioblastomas (e.g. glioblastoma grade 4), colonic cancer, rectum cancer, breast cancer (e.g. locally advanced breast cancer and its metastasis), oesophagus cancer, gastric/stomach cancer, pancreas cancer, liver cancer such as hepatocellular carcinoma, lung cancer, malignant pheochromocytoma and cervical cancer, showing for the first time a potential universal role of US28 in pathology of cancer. The staining intensity of different cancer cells were classified as negative=0, weakly positive=1+, moderately positive=2+ or strongly positive=3+. […] In the majority of tumors with a positive US28-13-5G6-1D3 rAb staining, the staining was generally positive in large parts of the tumor cells. The tumor positivity was confirmed by positive finding of HCMV DNA in nucleus of the tumor cells by using ISH. […] The IgG control Ab staining was used as negative control and was negative in all of the studied cancerous and normal tissues.

[3] = system: human primary cells (adrenal cortical, kidney epithelial, cardiac microvascular endothelial, liver epithelial, vein smooth muscle); assay: FACS off-target binding to human primary cells; conditions: FIG. 19 A
Protocol: Primary cells from different tissue origin were cultured in T25 flasks coated with 3 mL Gelatin-Based Coating Solution (Cellbiologeics, 6950) and placed at 37° C. for 1h. Excess solution was aspirated before cell seeding. 15 mL centrifuge tube were prepared with 6 mL preheated complete medium. Primary cells stored in liquid nitrogen were quickly thawed in 37° C. water bath for <1 min, and transferred to the 15 mL centrifuge tube. Cells were centrifuged at 1000 rpm for 5 minutes, before aspirating the supernatant and resuspending the cell pellet in 6 mL complete medium. Resuspended cells were added into the pre-coated T25 flask, and incubated in a humidified incubator at 37° C. with 5% CO2. […]
Flowcytometry was used to analyze cell surface binding by the US28 antibodies. Upon cell harvest, adherent non-infected and US28 overexpressing or HCMV infected cells were washed three times with cell staining buffer (phosphate-buffered saline (PBS (Amresco, Cleveland, 44139, USA) added 0.5% BSA and 0.05% Sodium Azide (NaN3)). The cells were trypisinized and then resuspended in DMEM with 10% FBS to inhibit the action of trypsin. The cells were then pelleted at 400×g for 10 minutes and washed three times in cell staining buffer. Cell viability and cell concentration were measured by tryphan blue viability assay and a cell counter (Countess, Invitrogen, Carlsbad, CA 92008, USA). […]

Row | Molecule | qualitative ELISA binding to Bio-Peptide-1 (4N) and Bio-Peptide-2 (4D) [1] | staining of metastases ([2]; All TNBC (n=8) and HER2 positive (n=11) metastases) | samples positive for staining ([2]; Hepatocellular carcinomas) | samples positive for staining ([2]; cervix cancer samples) | controls negative for staining ([2]; epithelial cells adjacent to colon adenocarcinoma) | samples positive for staining ([2]; lung cancer samples) | samples positive for staining ([2]; pancreas cancer samples) | number of samples with positive staining ([2]; rectum adenocarcinoma, 3 studied) | surface binding on human primary cells [3] [%] | IHC staining ([2]; human malignant pheochromocytoma tumor (HCMV positive control), FIG. 19 B) | adjacent control breast tissues with no cytoplasmic staining ([2]; normal breast epithelial cells)
1 | US28-13-5G6-1D3: monoclonal antibody against ECD3 of HCMV US28; VH SEQ ID NO: 12, VL SEQ ID NO: 18; rAb is the recombinant product (antibody, V domains shown, Mature form of VH sequence of 1D3, without the leader sequence; Mature form of VL sequence of 1D3, without the leader sequence, monoclonal antibody against ECD3 of HCMV US28; rAb is the recombinant product) VH: EVKLVESGGGLVQPGGSLRLACATSGFTFTDYYMSWVRQPPGKALEWLGFIRSKANGYTTEYSASVKGRFTISRDNSQSILYLQMNTLRSEDSATYYCARDERRTAWLAYWGQGTLVTVSA VL: DVLMTQTPLSLPVSLGDQASISCRSSQSIVHSNGNTYLDWYLQKPGQSPKLLIYKVSNRFSGVPDRFSGSGSGTDFTLKISRVEAEDLGVYYCFQGSHVPTWTFGGGTKLEIK | equal qualitative binding | positive | 2/3 | 2/3 | 3/3 | 2/3 | 1/3 | 3 | – | – | –
2 | 13-5G6-1D3: mouse monoclonal IgG1 kappa antibody against US28 ECD3; VH SEQ ID NO: 12, VL SEQ ID NO: 18 (antibody, V domains shown, Mature form of VH sequence of 1D3, without the leader sequence; Mature form of VL sequence of 1D3, without the leader sequence) VH: EVKLVESGGGLVQPGGSLRLACATSGFTFTDYYMSWVRQPPGKALEWLGFIRSKANGYTTEYSASVKGRFTISRDNSQSILYLQMNTLRSEDSATYYCARDERRTAWLAYWGQGTLVTVSA VL: DVLMTQTPLSLPVSLGDQASISCRSSQSIVHSNGNTYLDWYLQKPGQSPKLLIYKVSNRFSGVPDRFSGSGSGTDFTLKISRVEAEDLGVYYCFQGSHVPTWTFGGGTKLEIK | – | – | – | – | – | – | – | – | < 1 | positive staining | 10/10

— US20250296984A1, “THERAPEUTIC AND DIAGNOSTIC AGENTS AND USES THEREOF” (priority 2022, published 2025)
